Here are results for 2 molecules from US6072039, “Hybrid polypeptide comparing a biotinylated avidin binding polypeptide fused to a polypeptide of interest” (Rohm and Haas Company, dated 2000).

Experiment [1] concerns the target T1, avidin monomer affinity resin (Gallus gallus (Chicken), UniProt P02701). As to the kind of experiment: avidin monomer affinity column, cyanogen bromide cleavage mixture; by Procedure XI the polypeptide of interest is not retained and is collected in the column flowthrough. On the procedure: (§1) The crude extract is applied to a 4 mm×5 cm column packed with avidin monomer affinity resin (U.S. Ser. No. 414,785) on a LKB HPLC system equipped with two Model 2150 pumps, Model 2152 controller, and a Model 2140 spectral detector. Sample absorbance is monitored at 280 nm. The crude extract is applied in 100 mM potassium phosphate buffer, pH 6.8 to 7.2 (or other appropriate buffer at a pH of 4.0 to 11.0) at a flow rate of 0.1 ml/min to a column equilibrated with the same buffer. After the sample is loaded, the column is washed with phosphate buffer at a flow rate of 1 ml/min until absorbance returned to the baseline absorbance, and all nonbound material is washed from the resin. The column is then equilibrated with water, followed by application of 5 ml of 2M NaCl. The column is reequilibrated with water. This same NaCl-water wash procedure is repeated four to five times. The sample is eluted using acetic acid or biotin, as detailed in Procedure IX.
The hybrid polypeptide is dissolved in 70% (v/v) aqueous formic acid at 23° C. A 50 molar excess of cyanogen bromide is added in a small volume of 70% formic acid, with stirring. The mixture is incubated in the dark under nitrogen at 20–25° C. for 16 to 24 hours. The mixture is then diluted with 10 volumes of water and freeze-dried. Highly pure polypeptide of interest is obtained by Procedure VIII.
Procedure XI. […]

In experiment [2] the target is T1, avidin monomer affinity resin. Description: avidin monomer affinity column, formic acid cleavage mixture; by Procedure XI the polypeptide of interest is not retained and is collected in the column flowthrough. As to the method: as §1
Procedure XI. Separation of the Polypeptide of Interest from the Polypeptide for Attachment The dried polypeptide mixture is resuspended in avidin monomer column loading buffer, 100 mM phosphate buffer pH 6.8–7.2, or other appropriate buffer at a pH of between 4.0 and 11.0. Highly pure polypeptide of interest is obtained by passing the cleaved polypeptide mixture over the avidin resin using the procedure described above. […]

Turning to YGGFLTSEKSQTPLVTLFKNAIIKNAYKKGE [β-endorphin cleaved from the hybrid polypeptide by cyanogen bromide (Examples 3 and 6)], the binding result in experiment [1] was “no binding”.
For PMYGGFLTSEKSQTPLVTLFKNAIIKNAYKKGE [β-endorphin cleaved from the 1.3S:β-endorphin hybrid by formic acid (Example 2)], the binding result in experiment [2] is on record as “no binding”.
